Source: US20090053241A1 (Eli Lilly, published 2009)

How the values were obtained:
h5β [1] = target: T1, h5β (human, UniProt P09619 33-530, limits assumed); experiment: ELISA (OD450), panel '2C5 BINDING TO PDGFRβ/α CHIMERAS'; axis 'CO…ON (nM)', titrated species not stated
T1 construct: domain: domains 1-5 (read from the label); read as human PDGFRβ with all five domains

[2] = target: T2, human PDGFRβ (soluble recombinant protein) (human, UniProt P09619 33-530, limits assumed); experiment: ELISA, panel 'BINDING TO hPDGFRβ'
T2 construct: the construct is not described; also called hPDGFRβ

[3] = target: mouse PDGFRβ on cells (NIH/3T3, D122, 4T1, B16) (mouse, UniProt P05622 32-1098); experiment: cell-based or functional assay
[4] = target: human PDGFRβ, cell-surface-expressed receptor on human tumor cell lines (human, UniProt P09619 33-1106); experiment: cell-based or functional assay
h5β [5] = target: T1, h5β; experiment: ELISA (OD450), panel '2C5 BINDING TO hPDGFRβ DELETIONS'; axis 'CO…ON (nM)', titrated species not stated
[6] = target: T3, β1-2 (shorter version of PDGFRβ, D1D2); experiment: as above
T3 construct: domain: D1D2

[7] = target: T4, β1-3 (shorter version of PDGFRβ, D1D2D3); experiment: as above
T4 construct: domain: D1D2D3

[8] = target: T2, human PDGFRβ (soluble recombinant …); experiment: blocking of PDGF-BB binding to hPDGFRβ (FIG. 6)
mPDGFRβ/Fc [9] = target: T5, mPDGFRβ/Fc (mouse, UniProt P05622 32-530, limits assumed); experiment: blocking of PDGF-BB binding to mPDGFRβ (FIG. 6)
T5 construct: The methods say 'mPDGFRβ' for ELISA plates and the BIAcore chip; also called murine PDGFRβ; mouse PDGFRβ; not shown: Fc part; detected with a goat anti-human Fc antibody
T5 sequence (looked up): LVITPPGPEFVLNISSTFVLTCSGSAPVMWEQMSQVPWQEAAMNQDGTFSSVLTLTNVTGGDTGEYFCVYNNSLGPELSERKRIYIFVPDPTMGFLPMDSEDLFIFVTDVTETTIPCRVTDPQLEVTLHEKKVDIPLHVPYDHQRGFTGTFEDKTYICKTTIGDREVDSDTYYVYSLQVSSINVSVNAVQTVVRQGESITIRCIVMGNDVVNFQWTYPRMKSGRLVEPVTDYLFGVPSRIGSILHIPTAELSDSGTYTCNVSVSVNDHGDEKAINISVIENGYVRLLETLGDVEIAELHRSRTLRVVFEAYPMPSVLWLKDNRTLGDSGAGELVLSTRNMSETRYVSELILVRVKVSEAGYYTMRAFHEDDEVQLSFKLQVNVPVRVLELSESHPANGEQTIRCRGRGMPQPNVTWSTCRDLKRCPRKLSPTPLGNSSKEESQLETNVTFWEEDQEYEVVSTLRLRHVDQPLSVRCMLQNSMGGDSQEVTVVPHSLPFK

mPDGFRβ/Fc [10] = target: T5, mPDGFRβ/Fc; experiment: ELISA, panel 'BINDING TO mPDGFRβ'
mPDGFRβ/Fc [11] = target: T5, mPDGFRβ/Fc; experiment: direct binding ELISA on mPDGFRβ/Fc-coated plates (printed as IC50; FIG. 1A)
Experimental: (§1) Plate-bound antibodies were detected with a goat anti-human-κ antibody-HRP. […] IMC-1121 is an antibody directed against human VEGFR2. Data represent the mean±SD of triplicate samples.
(§2) Quantitative receptor binding and blocking assays. […] The plates were then incubated at RT for an additional 1 h with a goat anti-human-κ antibody-horse radish peroxidase (HRP) conjugate (Jackson ImmunoResearch, West Grove, Pa.). The plates were washed and developed as previously described (Lu, D. et al., 2002; Zhu, Z. et al., 1998). […] After washing 3 times with PBST, the plates were incubated with a goat anti-human Fc antibody-HRP conjugate (Jackson ImmunoResearch) for 1 h, and developed as described (Lu, D. et al., 2002; Zhu, Z. et al., 1998; Loizos, N. et al., 2005).

mPDGFRβ/Fc [12] = target: T5, mPDGFRβ/Fc; experiment: blocking ELISA: antibody mixed with mPDGFRβ/Fc, PDGF-BB-coated plates (FIG. 1B)
Experimental: as §1, §2

mPDGFRβ/Fc [13] = target: T5, mPDGFRβ/Fc; experiment: blocking ELISA, panel 'BLOCKING PDGF-BB BINDING TO mPDGFRβ'; blocked ligand PDGF-BB
mPDGFRβ/Fc [14] = target: T5, mPDGFRβ/Fc; experiment: SPR (BIAcore), mPDGFRβ immobilized
Experimental: Antibody affinity determination. […] Sensorgrams were obtained at each concentration and were evaluated using the program, BIA Evaluation 2.0. The affinity constant, Kd, was calculated from the ratio of dissociation rate (koff)/association rate (kₒₙ) (Lu, D. et al., 2002; Zhu, Z. et al., 1998; Loizos, N. et al., 2005).

mPDGFRβ/Fc [15] = target: T5, mPDGFRβ/Fc; experiment: ELISA on mPDGFRβ/Fc-coated plate (1 µg/ml), detection with goat anti-human-κ antibody-HRP
Experimental: as §1, §2

mPDGFRβ/Fc [16] = target: T5, mPDGFRβ/Fc; experiment: blocking ELISA: Fab mixed with mPDGFRβ/Fc, PDGF-BB-coated plates (FIG. 1B)
Experimental: as §1, §2

T2 sequence (P09619 33-530 limits assumed): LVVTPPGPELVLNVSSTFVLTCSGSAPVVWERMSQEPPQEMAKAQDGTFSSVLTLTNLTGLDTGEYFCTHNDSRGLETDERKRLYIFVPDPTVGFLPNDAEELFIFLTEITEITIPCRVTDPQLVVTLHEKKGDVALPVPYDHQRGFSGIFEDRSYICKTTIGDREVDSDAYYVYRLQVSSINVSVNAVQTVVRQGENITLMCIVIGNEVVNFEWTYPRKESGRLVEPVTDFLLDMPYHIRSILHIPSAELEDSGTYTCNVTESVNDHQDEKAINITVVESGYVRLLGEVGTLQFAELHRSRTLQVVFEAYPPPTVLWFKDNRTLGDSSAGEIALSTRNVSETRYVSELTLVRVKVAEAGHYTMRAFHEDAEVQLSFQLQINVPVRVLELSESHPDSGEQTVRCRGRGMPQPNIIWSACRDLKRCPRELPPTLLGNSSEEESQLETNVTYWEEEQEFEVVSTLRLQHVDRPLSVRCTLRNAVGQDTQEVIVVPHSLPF
T1 sequence (P09619 33-530 limits assumed): as above
human PDGFRβ, cell-surface-expressed receptor on human tumor cell lines, sequence (P09619 33-1106): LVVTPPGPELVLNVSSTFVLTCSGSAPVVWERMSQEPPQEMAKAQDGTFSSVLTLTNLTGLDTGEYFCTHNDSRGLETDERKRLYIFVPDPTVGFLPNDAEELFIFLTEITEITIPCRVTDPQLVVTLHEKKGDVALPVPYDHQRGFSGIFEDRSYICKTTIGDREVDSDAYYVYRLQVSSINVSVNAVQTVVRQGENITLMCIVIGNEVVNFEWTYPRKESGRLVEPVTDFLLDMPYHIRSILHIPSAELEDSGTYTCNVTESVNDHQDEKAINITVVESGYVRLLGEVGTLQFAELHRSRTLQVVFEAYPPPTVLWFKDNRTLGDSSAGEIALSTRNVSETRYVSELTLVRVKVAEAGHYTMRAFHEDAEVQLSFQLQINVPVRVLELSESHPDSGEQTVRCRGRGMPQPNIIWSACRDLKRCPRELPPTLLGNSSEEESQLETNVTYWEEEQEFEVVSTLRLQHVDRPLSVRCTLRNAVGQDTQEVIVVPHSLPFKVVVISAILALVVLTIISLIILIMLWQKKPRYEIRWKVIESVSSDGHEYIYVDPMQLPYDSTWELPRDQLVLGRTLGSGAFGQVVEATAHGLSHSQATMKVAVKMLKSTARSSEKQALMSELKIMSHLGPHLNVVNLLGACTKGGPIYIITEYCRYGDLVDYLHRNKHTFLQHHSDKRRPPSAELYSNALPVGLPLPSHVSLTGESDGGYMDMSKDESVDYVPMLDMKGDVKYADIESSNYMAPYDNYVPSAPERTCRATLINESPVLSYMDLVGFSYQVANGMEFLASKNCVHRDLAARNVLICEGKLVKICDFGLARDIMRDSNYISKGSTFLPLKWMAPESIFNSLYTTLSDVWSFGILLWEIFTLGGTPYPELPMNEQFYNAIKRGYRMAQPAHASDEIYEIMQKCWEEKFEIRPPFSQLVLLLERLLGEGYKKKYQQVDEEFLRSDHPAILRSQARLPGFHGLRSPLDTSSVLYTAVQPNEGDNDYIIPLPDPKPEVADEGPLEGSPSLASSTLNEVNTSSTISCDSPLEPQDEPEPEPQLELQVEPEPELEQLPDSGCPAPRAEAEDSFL

B1: 2C5 (human anti-PDGFRβ antibody) (antibody, V domains shown)
VH: QVQLVQSGAEVKKPGSSVKVSCKASGGTFSSYAISWVRQAPGQGLEWMGRIIPILGIANYAQKFQGRVTITADKSTSTAYMELSSLRSEDTAVYYCARDMGSRNYYYFYWGQGTLVTVSS
VL: EIVLTQSPATLSLSPGERATLSCRASQSVGRYLAWYQQKPGQAPRLLIYGASNRATGIPARFSGSGSGTDFTLTISSLEPEDFAVYYCQQRSNWPLTFGGGTKVEIKR
notes: also called 2C5 antibody; anti-PDGFRβ antibody 2C5
h5β [1]
  EC50 (read off the curve): ~0.05 nM
[2]
  EC50 (read off the curve): ~0.1 nM
[3]
  PDGFRβ phosphorylation in mouse NIH/3T3 and D122 cell lines, IC50: < 1.8 µg/mL
[4]
  PDGFRβ phosphorylation in human Caki-1 tumor cells, IC50: < 1.8 µg/mL
h5β [5]
  EC50 (read off the curve): ~0.06 nM
[6]
  EC50 (read off the curve): ~0.1 nM
[7]
  EC50 (read off the curve): ~0.07 nM
[8]
  IC50: 0.55 nM
mPDGFRβ/Fc [9]
  IC50: 0.35 nM
mPDGFRβ/Fc [10]
  EC50 (read off the curve): ~0.1 nM

B2: 1B3 IgG (full-length human anti-mouse PDGFRβ antibody) (antibody, V domains shown)
VH: QVQLQESGGGLVKPGGSLRLSCAASGFTFSSYSMNWVRQAPGKGLEWVSSISSSSSYIYYADSVKGRFTISRDNSKNTLYLQMNSLRAEDTAVYYCAKGGRPLLVFDFWGQGTLVTVS
VL: EIVMTQSPGTLSLSPGERATLSCRASQSVSSSYLAWYQQKPGQAPRLLIYDASKRATGIPARFSGSGSGTDFTLTISTLESEDSAVYYCQQRGYWPPITFGQGTRLEIKR
notes: also called 1B3 antibody; anti-mPDGFRβ antibody 1B3
mPDGFRβ/Fc [11]
  EC50: 0.34 nM
[2]
  binding result: no binding (tested: about 1e-8 M)
mPDGFRβ/Fc [12]
  IC50: 1.2 nM
mPDGFRβ/Fc [10]
  EC50 (read off the curve): ~0.07 nM
mPDGFRβ/Fc [13]
  IC50: 0.37 nM
mPDGFRβ/Fc [14]
  Kd: 0.09 nM
  fold increase in affinity over its Fab form: ~57 times

B3: 1121 IgG (antibody, V domains shown)
VH: EVQLVQSGGGLVKPGGSLRLSCAASGFTFSSYSMNWVRQAPGKGLEWVSSISSSSSYIYYADSVKGRFTISRDNAKNSLYLQMNSLRAEDTAVYYCARVTDAFDIWGQGTMVTVSS
VL: DIQMTQSPSSVSASIGDRVTITCRASQGIDNWLGWYQQKPGKAPKLLIYDASNLDTGVPSRFSGSGSGTYFTLTISSLQAEDFAVYFCQQAKAFPPTFGGGTKVDIK
notes: The sheet prints '1121 IgG'; also called IMC-1121; antibody directed against human VEGFR2
mPDGFRβ/Fc [15]
  binding result: no binding (tested: 10 nM)

B4: 1B3 Fab (Fab, V domains shown)
VH: QVQLQESGGGLVKPGGSLRLSCAASGFTFSSYSMNWVRQAPGKGLEWVSSISSSSSYIYYADSVKGRFTISRDNSKNTLYLQMNSLRAEDTAVYYCAKGGRPLLVFDFWGQGTLVTVS
VL: EIVMTQSPGTLSLSPGERATLSCRASQSVSSSYLAWYQQKPGQAPRLLIYDASKRATGIPARFSGSGSGTDFTLTISTLESEDSAVYYCQQRGYWPPITFGQGTRLEIKR
notes: also called 1B3 Fab fragment; clone 1B3
mPDGFRβ/Fc [16]
  IC50: 4.1 nM
mPDGFRβ/Fc [11]
  EC50: 1.3 nM
mPDGFRβ/Fc [14]
  Kd: 5.1 nM
